Tests used:
[1] = molecular target: T1, ROS1 (Homo sapiens, UniProt P08922); experiment: saturation binding assay
T1 chain: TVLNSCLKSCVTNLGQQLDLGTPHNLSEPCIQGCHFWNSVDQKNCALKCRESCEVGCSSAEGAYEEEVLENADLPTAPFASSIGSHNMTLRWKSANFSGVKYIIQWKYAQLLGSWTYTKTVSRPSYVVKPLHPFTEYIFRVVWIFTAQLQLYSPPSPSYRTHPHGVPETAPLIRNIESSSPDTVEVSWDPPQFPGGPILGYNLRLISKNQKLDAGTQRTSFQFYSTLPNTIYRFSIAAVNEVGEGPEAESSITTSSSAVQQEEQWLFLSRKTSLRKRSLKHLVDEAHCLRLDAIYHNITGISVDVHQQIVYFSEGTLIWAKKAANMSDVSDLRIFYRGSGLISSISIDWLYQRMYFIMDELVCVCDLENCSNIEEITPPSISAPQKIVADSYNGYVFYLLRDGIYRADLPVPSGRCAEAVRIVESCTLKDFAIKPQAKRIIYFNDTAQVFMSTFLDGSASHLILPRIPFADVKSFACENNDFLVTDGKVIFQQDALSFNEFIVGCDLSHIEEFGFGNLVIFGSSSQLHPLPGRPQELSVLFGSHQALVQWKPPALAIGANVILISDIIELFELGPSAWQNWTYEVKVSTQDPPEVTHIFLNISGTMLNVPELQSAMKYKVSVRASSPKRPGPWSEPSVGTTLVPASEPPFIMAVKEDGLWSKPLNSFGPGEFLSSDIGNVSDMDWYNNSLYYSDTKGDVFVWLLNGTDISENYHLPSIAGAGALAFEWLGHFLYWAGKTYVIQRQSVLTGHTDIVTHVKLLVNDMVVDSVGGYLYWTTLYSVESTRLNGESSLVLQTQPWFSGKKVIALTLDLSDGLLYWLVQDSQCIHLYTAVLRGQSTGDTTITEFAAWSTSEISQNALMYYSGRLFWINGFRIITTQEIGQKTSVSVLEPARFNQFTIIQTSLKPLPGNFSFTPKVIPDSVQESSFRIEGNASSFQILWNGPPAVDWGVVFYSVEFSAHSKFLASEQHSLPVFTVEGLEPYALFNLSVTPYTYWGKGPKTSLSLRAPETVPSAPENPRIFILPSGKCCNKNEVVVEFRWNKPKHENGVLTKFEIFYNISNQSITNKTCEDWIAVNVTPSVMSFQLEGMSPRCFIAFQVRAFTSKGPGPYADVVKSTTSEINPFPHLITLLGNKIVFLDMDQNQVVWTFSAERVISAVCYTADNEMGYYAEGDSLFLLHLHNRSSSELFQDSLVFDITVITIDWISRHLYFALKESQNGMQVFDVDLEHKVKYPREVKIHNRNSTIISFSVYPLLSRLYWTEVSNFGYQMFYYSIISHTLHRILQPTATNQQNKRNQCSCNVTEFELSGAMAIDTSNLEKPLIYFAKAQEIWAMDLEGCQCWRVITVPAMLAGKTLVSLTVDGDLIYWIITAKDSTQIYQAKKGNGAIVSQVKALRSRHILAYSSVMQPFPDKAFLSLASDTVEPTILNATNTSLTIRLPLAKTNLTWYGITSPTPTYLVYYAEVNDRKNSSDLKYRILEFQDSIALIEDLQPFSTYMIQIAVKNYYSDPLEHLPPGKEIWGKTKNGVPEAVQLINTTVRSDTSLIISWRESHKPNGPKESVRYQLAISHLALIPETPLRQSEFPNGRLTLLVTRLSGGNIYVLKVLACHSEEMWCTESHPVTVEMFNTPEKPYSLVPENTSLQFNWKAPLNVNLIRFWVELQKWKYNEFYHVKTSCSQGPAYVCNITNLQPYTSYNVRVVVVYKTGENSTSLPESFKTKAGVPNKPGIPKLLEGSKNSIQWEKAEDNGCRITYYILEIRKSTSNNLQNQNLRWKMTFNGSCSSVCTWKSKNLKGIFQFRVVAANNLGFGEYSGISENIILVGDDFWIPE

[2] = molecular target: T2, ROS1 ECD (Homo sapiens, UniProt P08922); experiment: saturation binding assay
T2 chain: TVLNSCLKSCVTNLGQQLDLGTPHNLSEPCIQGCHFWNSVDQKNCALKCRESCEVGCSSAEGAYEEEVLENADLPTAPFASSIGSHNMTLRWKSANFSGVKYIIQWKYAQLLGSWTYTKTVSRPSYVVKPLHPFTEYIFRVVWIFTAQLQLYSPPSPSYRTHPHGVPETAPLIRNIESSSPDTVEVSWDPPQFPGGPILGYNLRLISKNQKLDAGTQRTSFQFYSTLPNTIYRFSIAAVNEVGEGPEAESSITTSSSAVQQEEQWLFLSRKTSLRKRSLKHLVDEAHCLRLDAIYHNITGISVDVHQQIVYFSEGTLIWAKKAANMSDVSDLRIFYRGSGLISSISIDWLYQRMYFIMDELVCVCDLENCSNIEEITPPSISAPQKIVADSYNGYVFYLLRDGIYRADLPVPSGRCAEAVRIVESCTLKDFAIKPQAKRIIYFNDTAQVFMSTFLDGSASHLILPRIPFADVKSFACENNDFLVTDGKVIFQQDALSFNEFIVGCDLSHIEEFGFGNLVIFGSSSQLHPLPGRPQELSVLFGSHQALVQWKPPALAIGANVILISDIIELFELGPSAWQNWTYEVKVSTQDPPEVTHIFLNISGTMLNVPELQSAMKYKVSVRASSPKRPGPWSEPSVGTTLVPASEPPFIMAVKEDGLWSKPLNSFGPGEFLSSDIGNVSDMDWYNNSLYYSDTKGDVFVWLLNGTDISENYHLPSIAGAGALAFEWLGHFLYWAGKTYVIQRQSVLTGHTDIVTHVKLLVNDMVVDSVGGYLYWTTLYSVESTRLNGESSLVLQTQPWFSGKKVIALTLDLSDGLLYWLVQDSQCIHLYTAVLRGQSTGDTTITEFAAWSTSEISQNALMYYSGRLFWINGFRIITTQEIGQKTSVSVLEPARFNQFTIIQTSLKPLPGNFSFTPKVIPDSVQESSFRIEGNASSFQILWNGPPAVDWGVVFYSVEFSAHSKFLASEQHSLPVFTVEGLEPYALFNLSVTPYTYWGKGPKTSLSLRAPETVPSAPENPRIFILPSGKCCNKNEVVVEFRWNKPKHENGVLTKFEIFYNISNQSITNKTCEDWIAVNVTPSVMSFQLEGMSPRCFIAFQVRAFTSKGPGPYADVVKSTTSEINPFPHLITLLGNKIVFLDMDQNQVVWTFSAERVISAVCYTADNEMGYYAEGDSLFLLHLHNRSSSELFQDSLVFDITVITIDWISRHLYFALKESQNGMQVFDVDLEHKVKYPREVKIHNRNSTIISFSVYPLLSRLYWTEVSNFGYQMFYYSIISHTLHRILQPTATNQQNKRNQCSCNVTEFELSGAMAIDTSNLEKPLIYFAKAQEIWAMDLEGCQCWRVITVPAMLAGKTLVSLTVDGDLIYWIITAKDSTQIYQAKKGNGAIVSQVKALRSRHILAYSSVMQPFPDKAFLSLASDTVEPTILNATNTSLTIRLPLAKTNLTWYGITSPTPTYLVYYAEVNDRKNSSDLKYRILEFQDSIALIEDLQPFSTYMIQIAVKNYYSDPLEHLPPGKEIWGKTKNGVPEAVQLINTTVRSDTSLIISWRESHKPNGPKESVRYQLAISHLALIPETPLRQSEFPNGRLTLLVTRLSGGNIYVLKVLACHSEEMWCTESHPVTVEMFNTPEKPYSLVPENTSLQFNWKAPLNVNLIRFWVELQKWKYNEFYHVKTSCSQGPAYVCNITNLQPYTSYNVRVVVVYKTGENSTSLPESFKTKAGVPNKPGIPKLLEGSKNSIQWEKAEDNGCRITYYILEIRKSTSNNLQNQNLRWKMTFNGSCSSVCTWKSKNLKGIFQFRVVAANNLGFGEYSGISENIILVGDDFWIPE

Kd [1]: 33.5 nM
Kd [2]: 28.5 nM
B1: RNase7 (protein)
chain: KPKGMTSSQWFKIQHMQPSPQACNSAMKNINKHTKRCKDLNTFLHEPFSSVAATCQTPKIACKNGDKNCHQSHGAVSLTMCKLTSGKHPNCRYKEKRQNKSYVVACKPPQKKDSQQFHLVPVHLDRVL
